Patent US12708677B2, “Contrast agents, methods for preparing contrast agents, and methods of imaging” (Georgia State University Research Foundation, Inc., priority 2008, dated 2026)
Marks after values point to notes of the source that are not given here.

B1: CA1.CD2: designed Gd^3+-binding protein, domain 1 of rat CD2 with ligand residues Glu15, Glu56, Asp58, Asp62, Asp64 (protein)
chain: RDSGTVWGALGHGIELNIPNFQMTDDIDEVRWERGSTLVAEFKRKMKPFLKSGAFEIDANGDLDIKNLTRDDSGTYNVTVYSTNGTRILNKALDLRILE
B2: Gd-CA1.CD2: CA1.CD2 in complex with Gd^3+ (protein)
chain: RDSGTVWGALGHGIELNIPNFQMTDDIDEVRWERGSTLVAEFKRKMKPFLKSGAFEIDANGDLDIKNLTRDDSGTYNVTVYSTNGTRILNKALDLRILE

Tests used:
rabbits = experiment: Immunogenicity in rabbits, ELISA and immunoblotting; format: in vivo, rabbit
Description: FIG. 2.7: Illustrates ELISA (left) or western blot (right) analyses of antibody produced in rabbit serum after i.p. injection of […] of protein CA1.CD2 or PEGylated CA1.CD2 (PEGCA1.CD2). In (left), Pre is the serum from pre-bleeding before antigen injection. CA1.CD2 was mixed with adjuvant (CA1.CD2+Ad) or with buffer saline (CA1.CD2+Sal) before injection. PabCD2 is the anti-serum from rabbits produced by a commercial source use CD2 as antigen. The open bars are the first bleed after first injection. The gray bars are the second bleed after second injection. The rabbit blood was taken 3 weeks after each injection. The error bars are standard deviations of four measurements. In (right), Western blots were performed with anti-serum (1st bleed) from rabbits that were injected; CA1.CD2 mixed with buffered saline (left panel, CA1.CD2+Sal), CA1.CD2 mixed with adjuvant (middle panel, CA1.CD2+Ad), and the PEGylated CA1.CD2 (right panel, PEG-CA1.CD2). The Western blots experiments were carried out with 0.5 mg of PEGylated CA1.CD2 (PEG-CA1.CD2) or unmodified CA1.CD2 (CA1.CD2). Arrow indicates the position of the detected protein bands 19 hours post injection.
Rabbits were i.p. injected with Gd-CA1.CD2 and its pegylated variants. The agents (CA1.CD2) were mixed with adjuvant or with buffer saline and injected at a dose of 3.0 nmole/kg according to the standard protocol for the antibody production. […]

[1] = Protein solubility by concentrating to precipitation; format: physicochemical; conditions: current formulation
Description: Protein was expressed in E. coli as inclusion body and purified using urea refolding and ion-exchange column. N15 labeled protein was expressed in SV medium as GST fusion (Yang et al., Biochem 2006) and purification was by GST-4B affinity column and SP column. Protein was verified by mass spectrometry. Protein concentration was calculated using extinction coefficient of w.t. CD2 of 11,000 (Ye et al., 2001). Protein solubility was determined by concentrating proteins to reach to precipitation using speed vac.

[2] = Gd^3+-binding affinity, dye competition titration with Fluo-5N; conditions: phosphate 50 mM
Description: Gd^3+-binding Affinity Determination, […]-binding affinity of CA1.CD2 was determined by a competition titration with Fluo-5N applied as a Gd^3+ indicator. The fluorescence spectra of Fluo-5N were obtained with a fluorescence spectrophotometer (Photon Technology International, Inc.) with a 10 mm path length quartz cell at 22° C. Fluo-5N emission spectra were acquired at […] to 650 nm with an excitation at 488 nm. […] The experiment was performed with a gradual addition of CA1.CD2. An apparent constant, Kapp, was estimated by fitting the fluorescence emission intensity of Fluo-5N at 520 nm with different CA1.CD2 concentrations as a 1 to 1 binding model. Gd^3+-binding affinity of CA1.CD2, Kd2, was calculated with the following equation: […]
Since metal selectivity for Gd^3+ over other physiological metal ions is for minimizing the toxicity of the agents,^39, 40 we measured metal binding constants using dye-competition assays with various chelate-metal buffer systems (Table 1). […]
Gd^3+-binding affinities of CA1.CD2 and its pegylated variants were determined by a competition titration with Fluo-5N applied as a Gd^3+ indicator (Yang et al., JACS, 2008). The fluorescence spectra of Fluo-5N were obtained with a fluorescence spectrophotometer (Photon Technology International, Inc.) with a 10 mm path length quartz cell at 22° C. […]

CD-1 mice = experiment: Toxicity analyses and clinical pathology in mice
Description: Toxicity Analyses. […] Tissue samples from kidney, liver, spleen, and lung were collected.
One group of mice received (i.v. tail veil) 50 μl of saline-buffer (as control). […] Blood samples were collected from the experimental mice. Serum samples were prepared from the collected blood. Liver enzymes in serum samples, including Alanine transaminase (ALT), Alkaline phosphatase (ALP), Aspartate transaminase (AST), Gamma glutamyl transpeptidase (GGT), and bilirubin and urea nitrogen were analyzed by a commercially available source (MU Research Animal Diagnostic Laboratory). All clinical chemistry parameters were measured on an Olympus AU 400 analyzer.
Tissue samples from kidney, liver, spleen, and lung were collected.

Molecule | antibody production (rabbits; with adjuvant) | antibody production (rabbits; without adjuvant, double dose immunization, 3.0 nmole/kg i.p.) | solubility [1] | removal of Gd^3+ from the protein by phosphate [2] | ALP (CD-1 mice; 4.0 μmole/kg, n = 4) [U/L] | ALT (CD-1 mice; 4.0 μmole/kg, n = 4) [U/L] | AST (CD-1 mice; 4.0 μmole/kg, n = 4) [U/L] | Direct Bili (CD-1 mice; 4.0 μmole/kg, n = 4) [mg/L] | GGT (CD-1 mice; 4.0 μmole/kg, n = 4) [U/L] | Total Bili (CD-1 mice; 4.0 μmole/kg, n = 4) [mg/L] | Total Urine Protein (CD-1 mice; 4.0 μmole/kg, n = 4) [g/L] | Urea Nitrogen (CD-1 mice; 4.0 μmole/kg, n = 4) | effects on liver enzymes (ALT, ALP, AST), serum urea nitrogen, bilirubin, total protein vs control mice (CD-1 mice; 48 hours post-contrast injection) | acute toxicity (CD-1 mice; ~2.4 μmole/kg, observed five days)
B1 | resulted in immuno-responses | did not lead to antibody production | ~ 0.7 mM | not able to remove the Gd^3+ from the protein |  |  |  |  |  |  |  |  |  | 
B2 |  |  |  |  | 115.0 ± 0.2 | 49.0 ± 0.2 | 280.0 ± 0.2 | 0.0 | 0.0 | 0.4 ± 0.2 | 5.2 ± 0.2 | 26.0 ± 0.2^d mg/L | negligible | did not exhibit acute toxicity
